Assay results taken from paper PMC2720809 (Nature, 2009).
pEC50: −log10 of the molar value. Values belong to the molecule of their own block, whether it stands above or below them.

Tests used:
[1] = target: T1, zebrafish P2X4.1 receptor (zfP2X4) (Danio rerio, UniProt F8W463); test: whole-cell patch clamp of transfected tsA201 cells; format: cell-based
T1 sequence (F8W463 1-389): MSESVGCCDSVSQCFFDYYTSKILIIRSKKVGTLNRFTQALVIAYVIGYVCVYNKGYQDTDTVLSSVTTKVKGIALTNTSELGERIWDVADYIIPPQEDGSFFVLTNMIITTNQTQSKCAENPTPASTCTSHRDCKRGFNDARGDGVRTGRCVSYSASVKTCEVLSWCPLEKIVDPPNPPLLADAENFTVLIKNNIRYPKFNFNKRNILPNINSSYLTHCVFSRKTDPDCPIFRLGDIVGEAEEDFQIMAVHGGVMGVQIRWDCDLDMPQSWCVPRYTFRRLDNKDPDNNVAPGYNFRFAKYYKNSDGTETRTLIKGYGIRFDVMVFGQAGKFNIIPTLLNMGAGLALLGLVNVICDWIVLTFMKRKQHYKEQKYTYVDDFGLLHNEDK

[2] = target: ΔzfP2X4-A (zebrafish P2X4.1 receptor with amino- and carboxyl-terminal deletions) (zebrafish) (UniProt F8W463); test: crystal structure
[3] = target: ΔzfP2X4-B (ΔzfP2X4-A with C51F/N78K/N187R) (zebrafish) (UniProt F8W463); test: crystal structure

pEC50 [1]: ~3.10
Molecule: Nc1ncnc2c1ncn2[C@@H]1O[C@H](COP(=O)(O)OP(=O)(O)OP(=O)(O)O)[C@@H](O)[C@H]1O [ATP]

stoichiometry N [2]: 3
Molecule: ΔzfP2X4-A (zebrafish P2X4.1 receptor with amino- and carboxyl-terminal deletions) (from UniProt F8W463 1-389)

stoichiometry N [3]: 3
Molecule: ΔzfP2X4-B (ΔzfP2X4-A with C51F/N78K/N187R) (from UniProt F8W463 1-389) (receptor)
